# Data from the RNAGym collection of RNA variant scans (doi:10.7554/elife.80360).
# B1: Twister Ribozyme (parent)
# chain: AACACUGCCAAUGCCGGUCCCAAGCCCGGAUAAAAGUGGAGGGGGCGG
# Variants of: B1
# Experiment: self-cleavage, relative activity (ratio to wild type); higher = more cleavage; co-transcriptional
row,Variant,self-cleavage
1,U18C C19A,0.0644
2,U18C C25A,0.105
3,U18C U37A,0.197
4,U18A A34G,0.171
5,U18A A34U,0.0942
6,G17U A35U,0.372
7,U18A C26G,0.124
8,U18G A40C,0.0607
9,U18A A33C,0.247
10,G17U C19G,0.111
11,G17U C19U,0.143
12,U18G A33U,0.0323
13,U18C A22G,0.0724
14,G17U G28C,0.0949
15,G17U C20G,0.105
16,G17U C20U,0.167
17,U18C C27G,0.0754
18,U18C G28U,0.156
19,U18G G24C,0.117
20,U18G G24A,0.0714
21,G17U G43U,0.12
22,U18A G41A,0.101
23,U18A G28C,0.185
24,U18A G28U,0.314

row,Variant,self-cleavage
1,U18A G28A,0.2
2,U18G A32G,0.0643
3,U18C A30C,0.0938
4,U18C A30G,0.713
5,U18G A30U,0.0738
6,U18C G42C,0.114
7,U18A A32G,0.407
8,U18A A32U,0.632
9,U18A A32C,0.53
10,U18A G43A,0.147
11,U18C G38C,0.523
12,U18C G38A,0.371
13,U18G C20G,0.069
14,U18G C20A,0.057
15,U18A C21G,0.395
16,U18A C21A,0.084
17,U18C C46G,0.477
18,U18C C46U,0.599
19,U18C C46A,0.463
20,G17U G24A,0.101
21,G17U A32C,0.263
22,G17U A32G,0.345
23,G17U A32U,0.294
24,U18G G29C,0.0613

row,Variant,self-cleavage
1,U18C G45C,0.132
2,U18C G45A,0.48
3,G17U A40U,0.145
4,U18C C26U,0.0772
5,U18C C26G,0.0519
6,G17U A23G,0.0937
7,G17U A23C,0.0677
8,G17U A23U,0.159
9,U18A A40G,0.0784
10,U18A C19A,0.0671
11,G17U A30U,0.485
12,G17U A30C,0.147
13,U18G C25A,0.138
14,U18G C25U,0.085
15,U18G C25G,0.0608
16,U18G A22U,0.0775
17,U18G A22G,0.0592
18,U18G C21G,0.0716
19,U18G C21A,0.133
20,U18C G44A,0.714
21,G17U G39U,0.108
22,G17U G39C,0.0939
23,G17U A22G,0.103
24,U18G G38C,0.102

row,Variant,self-cleavage
1,U18G G38U,0.0721
2,U18A G47C,0.164
3,U18A G47A,0.201
4,U18A G48C,0.395
5,U18A G48U,0.419
6,U18C G48A,0.368
7,U18C G48U,0.496
8,U18C G48C,0.562
9,U18G C19U,0.105
10,U18C C21G,0.0463
11,U18A A35G,0.123
12,U18A A35U,0.624
13,U18A A35C,0.445
14,U18C U31A,0.54
15,U18C U31G,0.477
16,G17U G47A,0.237
17,U18G G39C,0.0419
18,U18A A30U,0.586
19,U18A A30G,0.606
20,U18G C26G,0.0643
21,G17U C25A,0.0904
22,G17U C25G,0.0862
23,U18C G39U,0.104
24,U18C G29A,0.275

row,Variant,self-cleavage
1,U18C A33G,0.503
2,U18C A33U,0.542
3,U18C G36C,0.1
4,G17U U31C,0.495
5,U18G A23U,0.0485
6,U18C G43A,0.188
7,U18C G43C,0.121
8,U18C G43U,0.111
9,G17U,0.497
10,U18C C20A,0.0953
11,U18C C20G,0.102
12,G17U U37C,0.085
13,U18G A34U,0.0388
14,U18G A34C,0.0636
15,U18A G39U,0.144
16,U18A G39C,0.102
17,G17U G44U,0.374
18,G17U G44A,0.219
19,U18A G38C,0.448
20,U18A G38A,0.229
21,G17U G36U,0.0806
22,G17U G36C,0.14
23,G17U G38U,0.158
24,U18C G41A,0.137

row,Variant,self-cleavage
1,U18C A32G,0.664
2,U18C A32C,0.486
3,U18A U31C,0.568
4,U18A U31G,0.644
5,U18C G24U,0.079
6,U18C G24C,0.0613
7,U18A G44C,0.448
8,U18A G44A,0.631
9,U18G C46A,0.0573
10,U18A C27G,0.0805
11,U18A C27A,0.114
12,U18G G28U,0.089
13,U18A G45U,0.272
14,G17U G45U,0.221
15,G17U G45C,0.183
16,G17U C26A,0.719
17,G17U C46U,0.625
18,G17U C46A,0.274
19,U18A C25U,0.0861
20,U18A A22U,0.17
21,U18A C46A,0.252
22,U18A C46U,0.617
23,U18A C46G,0.475
24,U18G A35C,0.0813

row,Variant,self-cleavage
1,G17U A34U,0.159
2,U18G G36A,0.0894
3,U18G G36C,0.0571
4,G17C U37G,0.0835
5,U18C A35U,0.665
6,U18A G29C,0.0874
7,U18A G29U,0.389
8,U18A C20A,0.0667
9,U18A A23G,0.0959
10,G17U G42A,0.104
11,G17U G42C,0.126
12,G17U C21A,0.0909
13,G17U C21G,0.064
14,U18C A23G,0.157
15,U18C A23C,0.506
16,U18C A23U,0.242
17,U18A U37C,0.0568
18,G17U G41C,0.0885
19,G17U G41U,0.101
20,G17U G41A,0.103
21,G17U C27A,0.148
22,G17U U18C,0.126
23,U18A G42U,0.161
